Results taken from article PMC10403280.

Experiments:
affibody ZpA963 = experiment: SPR; BIAcore T100; about 100 RU of biotinylated affibody captured on a streptavidin (SA) chip, the partner flowed over in two-fold dilutions; HBS-P+; 1:1 binding model or steady-state affinity model; which partner was captured is not told
affibody Z_(SPA-1) = experiment: as above
[1] = target: affibody ZpA963, second protein (Z-B) of the yeast-displayed single chain; experiment: on-yeast cleavage-capture assay; conditions: 60 min after 3C protease cleavage; parent: est. 63; read off a plot
[2] = target: Z domain of staphylococcal protein A, displayed on yeast (first protein, Z-A); experiment: flow cytometry on cells; on-yeast cleavage-capture assay, test of fluorescently labelled anti-HA antibodies of different valency (Fab, IgG mAb, Fab+streptavidin complex); staining after 3C cleavage as % of uncleaved cells
[3] = target: Z domain of staphylococcal protein A, displayed on yeast (first protein, Z-A); experiment: flow cytometry on cells; on-yeast cleavage-capture assay: Aga2-cMyc-ZA-linker (3C site)-ZB-HA on S. cerevisiae EBY100, stained with Alexa Fluor 488 anti-cMyc and Alexa Fluor 647 anti-HA antibody, cut with 3C protease (0.4 mg/mL in MACS buffer, 4°C); HA-tag MFI as % of the MFI before cleavage
[4] = target: Z domain of staphylococcal protein A, displayed on yeast (first protein, Z-A); experiment: on-yeast cleavage-capture assay; conditions: 60 min after 3C protease cleavage; parent: est. 63; read off a plot

Question: With “Z domain of staphylococcal protein A (domain or fragment)” as the substance, how does the Kd (affibody ZpA963) read?
Answer: 10 nM

Question: And the Kd (affibody Z_(SPA-1))?
Answer: 2920 nM

Question: How did the response [1] turn out when “Z domain of staphylococcal protein A, displayed on yeast (first protein, Z-A) L17I” was run?
Answer: 66 % max.

Question: For “affibody ZpA963, second protein (Z-B) of the yeast-displayed single chain (designed binder)”, which % of the staining of uncleaved cells kept after 3C cleavage (anti-HA Fab+SA complex) [2] is on record?
Answer: 69.9%

Question: What about the % of the staining of uncleaved cells kept after 3C cleavage (anti-HA IgG mAb) [2] of the same substance?
Answer: 45.8%

Question: And the % of HA-tag fluorescence kept after an hour of 3C protease cleavage [3]?
Answer: 68.7%

Question: For “affibody ZpA963, second protein (Z-B) of the yeast-displayed single chain I31V”, which response [4] is on record?
Answer: 30 % max.

Question: “affibody ZpA963, second protein (Z-B) of the yeast-displayed single chain L35I” was tested. Which response [4] did it give?
Answer: 26 % max.
